Experimental data published in US20240228604A1 (ALCHEMAB THERAPEUTICS, published 2024).
Changes are numbered by the printed parent chain.

How the values were obtained:
[1] = target: T1, Recombinant cyno UNC5C (N-terminal His and FLAG tag), in-house production from HEK293F cells (cyno, UniProt O95185 41-380 (human entry), limits assumed); assay: direct ELISA
T1 construct: also called cyno UNC5C (Inhouse antigen); cyno antigen
Description: (§1) The plate was washed with PBS. Plates were blocked with 200 μl/well of blocking solution (1% BSA w/v in PBS) for 1 hour at room temperature. Following this, the blocking solution was removed and antibodies to be assessed were diluted in dilution series (1 μM to 0.05 nM) in blocking solution (1% BSA w/v in PBS) and applied to the plate. Plates were incubated at room temperature for 1 hour. The plate was washed with PBS/0.1% Tween. […] The plate was washed with PBS/0.1% Tween and TMB solution (Life Technology; #002023) added. Plates were incubated for 5 minutes at room temperature prior to the addition of stopping solution (0.5M sulphuric acid). Absorbance was read on Molecular Devices FilterMaxF5 plate reader at 450 nm. Analysis was performed using a non-linear fit curve fitting algorithm on GraphPad prism and EC50 calculated.
(§2) To measure the binding potency of antibodies to UNC5C protein, antibodies were assessed in a direct ELISA format for binding to human UNC5C. In addition, a selection of these antibodies was also screened for binding to mouse, cyno, and rat UNC5C in a direct ELISA format.

[2] = target: T2, Recombinant rat UNC5C (N-terminal His and FLAG tag), in-house production from HEK293F cells (rat, UniProt Q761X5 41-380); assay: direct ELISA
T2 construct: also called rat UNC5C (inhouse antigen); rat antigen
T2 sequence (Q761X5 other isoform, or with tags, fused parts or gaps limits assumed): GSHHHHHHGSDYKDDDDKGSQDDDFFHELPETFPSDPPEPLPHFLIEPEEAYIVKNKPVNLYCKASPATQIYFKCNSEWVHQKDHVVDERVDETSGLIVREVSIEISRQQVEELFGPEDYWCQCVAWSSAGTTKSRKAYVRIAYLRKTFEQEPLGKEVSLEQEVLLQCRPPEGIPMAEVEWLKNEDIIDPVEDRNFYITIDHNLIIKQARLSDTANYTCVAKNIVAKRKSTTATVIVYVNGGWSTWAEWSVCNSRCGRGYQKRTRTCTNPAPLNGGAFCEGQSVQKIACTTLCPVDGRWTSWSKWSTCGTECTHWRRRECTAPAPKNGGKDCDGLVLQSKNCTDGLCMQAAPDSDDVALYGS
Description: as §1, §2

[3] = target: T3, UNC5C recombinant human antigen, Fc-tagged (R&D Systems, #1005-UN) (human, UniProt O95185 41-380, limits assumed); assay: ELISA, antigen down
T3 construct: Bought protein; also called rhUNC5C; not shown: Fc tag of the bought protein
T3 sequence (O95185 41-380 limits assumed): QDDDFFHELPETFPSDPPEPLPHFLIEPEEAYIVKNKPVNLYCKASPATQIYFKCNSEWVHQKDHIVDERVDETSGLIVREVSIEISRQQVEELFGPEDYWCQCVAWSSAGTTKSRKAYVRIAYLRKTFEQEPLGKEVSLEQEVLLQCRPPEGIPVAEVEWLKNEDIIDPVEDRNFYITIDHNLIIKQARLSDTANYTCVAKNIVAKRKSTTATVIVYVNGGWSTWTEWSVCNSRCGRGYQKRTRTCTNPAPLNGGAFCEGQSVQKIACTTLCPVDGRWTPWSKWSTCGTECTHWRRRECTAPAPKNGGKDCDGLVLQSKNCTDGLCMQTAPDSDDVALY

[4] = target: T4, rmUNC5C, in-house production from HEK293F cells (N-terminal His and FLAG tag + amino acids 41-380 of murine … (mouse, UniProt O08747 41-380)); assay: direct ELISA
T4 construct: extracellular domain; also called mouse UNC5C (Inhouse antigen); recombinant mouse UNC5C
T4 sequence (O08747 other isoform, or with tags, fused parts or gaps limits assumed): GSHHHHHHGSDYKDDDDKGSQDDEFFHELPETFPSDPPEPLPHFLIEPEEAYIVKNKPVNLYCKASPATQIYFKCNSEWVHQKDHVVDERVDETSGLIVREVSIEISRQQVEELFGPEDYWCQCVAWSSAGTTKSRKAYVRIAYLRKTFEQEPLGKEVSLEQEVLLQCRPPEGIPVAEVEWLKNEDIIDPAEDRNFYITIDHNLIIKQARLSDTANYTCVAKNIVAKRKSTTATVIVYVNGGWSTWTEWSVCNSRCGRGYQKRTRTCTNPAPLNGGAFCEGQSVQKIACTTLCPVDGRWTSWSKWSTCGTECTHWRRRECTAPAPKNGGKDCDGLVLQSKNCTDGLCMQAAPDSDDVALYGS
Description: as §1, §2

[5] = target: T5, Human recombinant UNC5B (BLI antigen) (Human, UniProt Q8IZJ1 27-377); assay: BLI, antigen captured by His tag, antibody as analyte
T5 construct: also called UNC5B ectodomain
Source text: (§3) Antigen was loaded as ligand and dipped into antibody as analyte during association, and assay buffer during dissociation.
(§4) Purified recombinant antigens were purchased from a commercial supplier or prepared and purified in-house and details are shown in Table 2.

[6] = target: T6, Human recombinant UNC5A (BLI antigen) (Human, UniProt Q6ZN44 26-306); assay: as above
T6 construct: Captured by His tag; also called UNC5A ectodomain
T6 sequence (Q6ZN44 other isoform, or with tags, fused parts or gaps): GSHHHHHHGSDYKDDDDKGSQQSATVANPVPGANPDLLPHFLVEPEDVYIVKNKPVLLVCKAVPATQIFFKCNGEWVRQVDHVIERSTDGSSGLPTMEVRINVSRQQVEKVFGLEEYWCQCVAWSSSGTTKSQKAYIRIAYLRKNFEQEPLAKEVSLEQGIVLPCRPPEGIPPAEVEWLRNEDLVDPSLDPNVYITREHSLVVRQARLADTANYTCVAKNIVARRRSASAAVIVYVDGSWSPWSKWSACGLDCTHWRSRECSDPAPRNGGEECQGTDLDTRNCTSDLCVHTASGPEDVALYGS
Source text: as §3, §4

[7] = target: T7, Human recombinant UNC5D (BLI antigen) (Human, UniProt Q6UXZ4 33-379); assay: as above
T7 construct: also called UNC5D ectodomain
T7 sequence (Q6UXZ4 other isoform, or with tags, fused parts or gaps): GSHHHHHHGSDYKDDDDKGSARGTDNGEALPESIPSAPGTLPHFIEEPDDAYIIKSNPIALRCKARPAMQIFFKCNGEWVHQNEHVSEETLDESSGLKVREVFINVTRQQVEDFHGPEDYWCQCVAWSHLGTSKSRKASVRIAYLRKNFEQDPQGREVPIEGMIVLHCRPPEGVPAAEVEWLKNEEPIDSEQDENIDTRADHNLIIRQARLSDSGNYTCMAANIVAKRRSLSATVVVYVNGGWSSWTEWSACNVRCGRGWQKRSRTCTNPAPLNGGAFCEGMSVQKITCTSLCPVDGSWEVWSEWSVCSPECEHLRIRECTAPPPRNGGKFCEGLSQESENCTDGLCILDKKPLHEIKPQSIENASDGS
Source text: as §3, §4

[8] = target: T8, Human recombinant DCC (BLI antigen) (Human, UniProt P43146 26-1097); assay: as above
T8 construct: also called Netrin receptor DCC ectodomain
T8 sequence (P43146 other isoform, or with tags, fused parts or gaps): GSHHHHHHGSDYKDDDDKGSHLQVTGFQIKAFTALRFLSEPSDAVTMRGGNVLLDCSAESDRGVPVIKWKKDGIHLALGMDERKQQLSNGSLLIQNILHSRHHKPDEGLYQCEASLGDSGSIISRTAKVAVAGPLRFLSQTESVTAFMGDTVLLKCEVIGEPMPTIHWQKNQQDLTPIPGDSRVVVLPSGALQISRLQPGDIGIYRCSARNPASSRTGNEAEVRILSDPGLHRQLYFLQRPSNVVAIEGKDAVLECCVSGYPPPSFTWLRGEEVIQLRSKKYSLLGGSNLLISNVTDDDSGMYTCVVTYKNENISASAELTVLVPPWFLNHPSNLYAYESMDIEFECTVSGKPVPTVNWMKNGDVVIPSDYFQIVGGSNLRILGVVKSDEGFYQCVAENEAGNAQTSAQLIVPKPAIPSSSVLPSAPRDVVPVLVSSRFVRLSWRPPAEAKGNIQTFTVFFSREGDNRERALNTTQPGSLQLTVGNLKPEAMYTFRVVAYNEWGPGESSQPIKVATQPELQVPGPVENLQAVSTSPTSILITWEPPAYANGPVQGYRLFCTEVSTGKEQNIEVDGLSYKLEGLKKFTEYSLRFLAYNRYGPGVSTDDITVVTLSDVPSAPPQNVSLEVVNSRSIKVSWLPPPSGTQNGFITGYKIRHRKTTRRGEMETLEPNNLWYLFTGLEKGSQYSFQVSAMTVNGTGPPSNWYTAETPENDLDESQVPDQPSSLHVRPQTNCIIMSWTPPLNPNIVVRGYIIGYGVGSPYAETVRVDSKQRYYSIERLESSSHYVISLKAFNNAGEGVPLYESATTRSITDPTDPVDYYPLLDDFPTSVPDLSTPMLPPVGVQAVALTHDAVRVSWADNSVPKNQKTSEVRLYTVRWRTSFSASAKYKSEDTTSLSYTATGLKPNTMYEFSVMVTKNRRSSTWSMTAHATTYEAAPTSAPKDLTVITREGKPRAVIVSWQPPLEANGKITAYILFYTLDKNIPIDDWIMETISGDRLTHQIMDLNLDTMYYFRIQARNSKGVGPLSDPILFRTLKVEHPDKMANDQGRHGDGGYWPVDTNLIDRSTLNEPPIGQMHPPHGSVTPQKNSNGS
Source text: as §3, §4

[9] = target: T9, Human Neogenin (R&D Systems catalogue number 8607-NE; BLI antigen) (Human, UniProt Q92859 34-1105); assay: as above
T9 construct: extracellular domain; Bought protein; also called neogenin-1 ectodomain; NEO1
T9 sequence (looked up): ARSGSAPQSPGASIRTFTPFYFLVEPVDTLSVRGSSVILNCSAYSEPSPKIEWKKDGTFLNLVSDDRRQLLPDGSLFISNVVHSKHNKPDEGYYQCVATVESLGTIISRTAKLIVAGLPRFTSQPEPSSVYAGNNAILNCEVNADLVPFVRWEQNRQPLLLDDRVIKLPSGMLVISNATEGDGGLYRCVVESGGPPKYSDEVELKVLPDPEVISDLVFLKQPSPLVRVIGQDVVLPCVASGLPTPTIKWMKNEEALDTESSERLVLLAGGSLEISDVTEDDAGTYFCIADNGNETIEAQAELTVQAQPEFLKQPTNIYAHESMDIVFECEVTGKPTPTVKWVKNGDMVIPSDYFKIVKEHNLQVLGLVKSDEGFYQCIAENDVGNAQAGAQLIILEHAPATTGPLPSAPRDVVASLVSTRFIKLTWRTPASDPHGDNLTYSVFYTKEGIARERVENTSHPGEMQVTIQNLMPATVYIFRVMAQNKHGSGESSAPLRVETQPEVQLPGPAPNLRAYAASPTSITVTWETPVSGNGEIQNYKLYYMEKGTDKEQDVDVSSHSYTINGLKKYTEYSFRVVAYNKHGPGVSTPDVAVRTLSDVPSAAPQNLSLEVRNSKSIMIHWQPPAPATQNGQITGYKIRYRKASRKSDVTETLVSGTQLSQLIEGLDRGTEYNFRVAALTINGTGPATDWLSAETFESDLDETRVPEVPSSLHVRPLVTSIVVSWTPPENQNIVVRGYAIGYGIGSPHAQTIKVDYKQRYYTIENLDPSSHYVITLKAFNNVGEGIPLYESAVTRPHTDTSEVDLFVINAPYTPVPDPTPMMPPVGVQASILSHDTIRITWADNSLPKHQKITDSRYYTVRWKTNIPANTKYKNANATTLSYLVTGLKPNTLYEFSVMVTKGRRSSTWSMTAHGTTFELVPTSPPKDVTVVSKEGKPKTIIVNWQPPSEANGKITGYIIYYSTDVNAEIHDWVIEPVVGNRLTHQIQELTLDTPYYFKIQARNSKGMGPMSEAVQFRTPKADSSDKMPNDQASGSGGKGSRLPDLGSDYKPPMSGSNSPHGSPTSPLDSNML
Source text: as §3, §4

[10] = target: T10, mouse UNC5C in frozen C57BL/6 mouse brain sections (mouse, UniProt O08747 41-931); assay: immunofluorescence on frozen mouse brain sections, 10 µg/ml antibody
T10 construct: Native protein in fixed tissue sections; also called UNC5C in its natural central nervous system (CNS) context; mouse brain tissue
T10 sequence (O08747 41-931 limits assumed): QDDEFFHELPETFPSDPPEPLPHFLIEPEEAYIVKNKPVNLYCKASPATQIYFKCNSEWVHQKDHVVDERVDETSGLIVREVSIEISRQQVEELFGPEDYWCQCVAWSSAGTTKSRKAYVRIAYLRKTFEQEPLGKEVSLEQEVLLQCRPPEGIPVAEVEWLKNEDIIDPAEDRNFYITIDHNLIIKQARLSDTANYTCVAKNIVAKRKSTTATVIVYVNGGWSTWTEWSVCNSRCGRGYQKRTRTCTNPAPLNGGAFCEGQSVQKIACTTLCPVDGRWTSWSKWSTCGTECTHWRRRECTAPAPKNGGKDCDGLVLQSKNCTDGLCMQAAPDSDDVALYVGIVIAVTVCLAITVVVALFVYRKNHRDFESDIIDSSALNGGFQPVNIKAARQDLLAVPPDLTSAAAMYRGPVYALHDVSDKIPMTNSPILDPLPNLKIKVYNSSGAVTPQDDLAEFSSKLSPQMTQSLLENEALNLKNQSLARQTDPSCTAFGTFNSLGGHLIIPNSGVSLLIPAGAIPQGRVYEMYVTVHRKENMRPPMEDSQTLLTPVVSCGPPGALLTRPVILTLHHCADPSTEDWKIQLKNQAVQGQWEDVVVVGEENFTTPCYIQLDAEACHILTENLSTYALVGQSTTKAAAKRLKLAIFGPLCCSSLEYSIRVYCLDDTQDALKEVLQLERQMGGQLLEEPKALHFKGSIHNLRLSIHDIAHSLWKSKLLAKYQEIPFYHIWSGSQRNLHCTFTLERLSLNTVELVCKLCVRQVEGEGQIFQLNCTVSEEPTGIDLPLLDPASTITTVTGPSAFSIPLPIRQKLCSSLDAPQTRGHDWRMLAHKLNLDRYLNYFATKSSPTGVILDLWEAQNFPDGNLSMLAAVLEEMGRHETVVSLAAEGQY

[11] = target: T3, UNC5C recombinant human antigen, …; assay: direct ELISA
Description: as §1, §2

T1 sequence (O95185 other isoform, or with tags, fused parts or gaps limits assumed): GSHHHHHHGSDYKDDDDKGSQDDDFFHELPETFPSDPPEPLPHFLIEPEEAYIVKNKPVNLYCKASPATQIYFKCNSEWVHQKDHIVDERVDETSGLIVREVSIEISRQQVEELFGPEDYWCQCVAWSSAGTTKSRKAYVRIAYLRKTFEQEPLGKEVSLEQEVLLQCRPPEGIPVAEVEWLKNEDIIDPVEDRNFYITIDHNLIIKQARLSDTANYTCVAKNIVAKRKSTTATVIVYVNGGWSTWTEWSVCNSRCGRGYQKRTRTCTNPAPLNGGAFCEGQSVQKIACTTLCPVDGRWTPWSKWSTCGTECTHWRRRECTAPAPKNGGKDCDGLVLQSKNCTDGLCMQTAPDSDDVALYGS

B1: ATL_0005338 (antibody, V domains shown)
VH: EVKLDETGGGLVQPGRPMKLSCVASGFTFSDYWMNWVRQSPEKGLEWVAQIRNKPYNYETYYSDSVKGRFTISRDDSKSSVYLQMNNLRVEDMGIYYCTGSYYGMDYWGQGTSVTVSS
VL: DVVMTQTPLSLPVSLGDQASISCRSSQSLVNSNGNTYLRWYLQKPGQSPKVLIYKVSNRVSGVPDRFSGSGSGTDFTLKISRVEAEDLGVYFCSQSTHVPWTFGGGTKLEIK
notes: also called ATL_5338
binding result [1]: no binding (tested: <1 µM) | binding result [2]: no binding (tested: <1 µM)

B2: ATL_0006534 (antibody, V domains shown)
VH: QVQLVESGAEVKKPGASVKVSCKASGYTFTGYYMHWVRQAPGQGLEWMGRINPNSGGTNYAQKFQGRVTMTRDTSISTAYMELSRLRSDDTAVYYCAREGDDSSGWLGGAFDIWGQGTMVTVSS
VL: NFMLTQPHSVLESPGKTVTIPCTRSSGSIASNYVQWYQQRPGSAPTAVIFEDNVRPSGVPDRFSGSVDSSSNSASLTISGLKTEDEGDFYCQSYDSSGHVVFGGGTKVTVL
notes: also called ATL_6534; Y_0001393-001
EC50 [3]: 0.01 nM

B3: ATL_0005262 (antibody, human IgG1, V domains shown)
VH: QVQLQESGPGLVKPSETLSLTCTVSGGSISSYFWTWIRQPPGKRLEWIGYIHNSGTTNQNPSLKSRVTISIDTSKNHFSLKLSSVTAADTAVYYCARGRGMATLPFDYWGQGTLVTVSS
VL: not shown
notes: also called ATL_5262; ATL5262
binding result [4]: binds | binding result [2]: binds | binding result [5]: no binding (tested: up to 100 nM) | binding result [6]: no binding (tested: up to 100 nM) | binding result [7]: no binding (tested: up to 100 nM) | binding result [8]: no binding (tested: up to 100 nM) | binding result [9]: no binding (tested: up to 100 nM) | binding result [10]: binds

B4: ATL_0006039 (antibody, IgG1, V domains shown)
VH: B3 VH with T73K
VL: not shown
notes: also called ATL_6039
binding result [2]: binds

B5: ATL_0006191 (antibody, IgG1, V domains shown)
VH: QVQLQESGPGLVKPSETLSLTCTVSGGSIGSYFWSWIRQTPGKGLEWIGYIHYSGSSNYNPSLKSRVTISVDTFKNQFSLKLTSVTAADTAVYYCARGRGMATLPFDYWGQGTLVTVSS
VL: not shown
notes: ATL_5262 homologue VH paired with the VL of ATL_5262; also called ATL_6191; ATL6191
binding result [4]: binds | binding result [2]: binds

B6: ATL_0006001 (antibody, IgG1, V domains shown)
VH: B3 VH
VL: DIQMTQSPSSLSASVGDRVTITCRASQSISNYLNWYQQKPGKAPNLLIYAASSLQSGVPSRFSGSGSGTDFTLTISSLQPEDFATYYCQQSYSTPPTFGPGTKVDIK
notes: VL pairing variant of ATL_5262; also called ATL_6001
binding result [4]: binds | signal over lysozyme control (fold) [11]: ≥ 3 fold
